Measured values taken from patent US20240026017A1 (Kyowa Kirin, published 2024).

Key:
human CCR3 = target: T1, human CCR3 (human, UniProt P51677 1-355); assay: flow cytometry on CHO-S-hCCR3 cells, hybridoma culture supernatant diluted 10-fold
T1 construct: whole, on cells; also called hCCR3; CHO-S-hCCR3 (expressing cells)
T1 sequence (looked up): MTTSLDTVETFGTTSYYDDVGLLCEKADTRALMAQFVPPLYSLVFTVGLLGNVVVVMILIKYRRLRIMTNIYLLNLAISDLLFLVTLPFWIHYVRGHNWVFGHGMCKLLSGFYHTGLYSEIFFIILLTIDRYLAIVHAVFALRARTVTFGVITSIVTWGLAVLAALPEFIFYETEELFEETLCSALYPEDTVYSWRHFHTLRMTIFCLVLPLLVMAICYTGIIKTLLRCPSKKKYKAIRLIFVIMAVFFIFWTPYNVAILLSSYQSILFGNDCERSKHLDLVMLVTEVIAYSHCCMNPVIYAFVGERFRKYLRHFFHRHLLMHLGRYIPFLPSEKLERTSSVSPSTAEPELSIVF
From the text: (§1) As test antibodies, each hybridoma culture supernatant diluted 10-fold, an existing mouse anti-human CCR1 monoclonal antibody 53504 antibody (R & D Technologies), and a mouse anti-human CCR3 monoclonal antibody 444-11 antibody (MBL) were used.
(§2) Regarding the measurement results, the fluorescence intensity when a certain cell was stained with a certain test antibody (each hybridoma culture supernatant, 53504 antibody or 444-11 antibody) and a secondary antibody was divided by the fluorescence intensity when the cell was stained only with the secondary antibody. […] In Table 2, the results are indicated as A and B, respectively.

[1] = target: T2, NC3-mCCR1 (chimeric receptor in which positions 1 to 31 of mouse CCR1 were substituted with the corresponding … (human; mouse, UniProt P51677 1-31); assay: flow cytometry on CHO-S-NC3-mCCR1 cells, hybridoma culture supernatant diluted 10-fold
T2 construct: expressed on CHO-S cells; End 355 from the stated total length of CCR1; also called CHO-S-NC3-mCCR1 (expressing cells)
T2 sequence: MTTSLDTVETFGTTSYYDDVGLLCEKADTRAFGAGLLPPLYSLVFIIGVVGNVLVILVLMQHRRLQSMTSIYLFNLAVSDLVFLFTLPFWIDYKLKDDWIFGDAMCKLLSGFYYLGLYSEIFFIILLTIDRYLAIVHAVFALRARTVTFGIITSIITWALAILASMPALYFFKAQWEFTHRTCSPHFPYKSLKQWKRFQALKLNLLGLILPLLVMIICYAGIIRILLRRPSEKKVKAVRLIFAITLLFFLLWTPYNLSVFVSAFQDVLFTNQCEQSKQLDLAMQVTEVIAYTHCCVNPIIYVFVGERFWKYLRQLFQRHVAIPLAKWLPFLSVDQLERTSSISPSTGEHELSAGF
From the text: as §1, §2

fluorescence intensity ratio (test antibody + secondary / secondary only) (human CCR3): < 10 fold
fluorescence intensity ratio (test antibody + secondary / secondary only) [1]: < 10 fold
B1: KM5955 antibody (antibody, mouse IgG2a, V domains shown)
VH: EVQLVESGGGLVKPGGSLKLSCAASGFTLRDFGMHWVRQVPEKGLEWVAYISSGRTAISYVDKVKGRFTISRDNAKNTLFLQMTSLRSEDTAMYYCARRPYSKSYAMDYWGQGTSVTVSS
VL: DVVLTQTPLSLPVNIGDQASISCKSIKSLLNSDGFTYLDWYLQKPGQSPQLLIYLVSNRFSGVPDRFSGSGSGTDFTLKIRRVEAEDLGVYYCFQSNYLPLTFGAGTKLELK
notes: mouse IgG2a from hybridoma
